Results on seven molecules are retold here after patent US20220389097A1 (Genentech, published 2022).

In test [1] the target is T1, cynomolgus TREM2-Fc (cynomolgus monkey, UniProt A0A2K5UY34 49-204).
T1 construct: also called cyno TREM2; not shown: Fc part
T1 sequence: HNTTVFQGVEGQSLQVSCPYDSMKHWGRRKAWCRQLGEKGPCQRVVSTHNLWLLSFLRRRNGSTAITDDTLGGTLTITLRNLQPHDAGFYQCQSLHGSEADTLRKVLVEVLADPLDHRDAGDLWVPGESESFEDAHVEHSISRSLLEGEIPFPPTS
The test can be described thus: SPR (Biacore T200), 37 C; TREM2-Fc on protein A chip, soluble Fab. The protocol:
(§1) Affinity of h3.10C2.v1 (FIGS. 9A-B) for human and cynomolgus TREM2 was determined by SPR in a Biacore™ T200 apparatus in two formats, both at 37° C. In one format TREM2-Fc was immobilized on protein A chips and soluble anti-TREM2 Fab fragments used as ligands. In the second format, anti-TREM2 IgG was immobilized on anti-CH1 Biacore™ chips and used soluble monomeric TREM2 as ligand.
In general terms: Surface plasmon resonance follows binding to a sensor surface in real time, without labels.

Test [2] has as its target T2, human TREM2-Fc (human, UniProt Q9NZC2 19-174).
T2 construct: also called hTREM2; not shown: Fc part (captured by anti-human IgG1 Fc or protein A)
T2 sequence: T1 sequence with E10A, R60W, F89L, V125F
The test is described as above. The protocol: as §1

For test [3], the target named is T3, soluble monomeric human TREM2 (human, UniProt Q9NZC2 19-174, limits assumed).
T3 construct: Not the same as shed sTREM2; also called soluble monomeric TREM2
T3 sequence: T1 sequence with E10A, R60W, F89L, V125F
The test can be described thus: SPR (Biacore T200), 37 C; IgG on anti-CH1 chip, soluble monomeric TREM2.

Test [4] has as its target T1, cynomolgus TREM2-Fc. The test can be described thus: SPR (Biacore T200), 37 C; TREM2-Fc on anti-human IgG1 Fc chip, Fab in solution. The procedure:
(§2) Briefly, clone variants were expressed as Fab fragments and purified by anti-CH1 affinity chromatography followed by size exclusion chromatography. TREM2-Fc antigens were immobilized on anti-human IgG1 Fc Biacore™ chips and soluble Para.09 variant and 3.10C2 clone Fab fragments were bound to immobilized TREM2 at 37° C.

Test [5] has as its target T2, human TREM2-Fc. The test is described as above. The procedure: as §2

Substitutions are numbered along the chain they refer to.

B1: h3.10C2.v1 Fab (Fab, V domains shown)
VH: EVQLVESGGGLVQPGGSLKLSCATSGFPFSNVWMHWVRQASGKGLEWIAHIKAKSDNYATYYAESVKGRFTISRDDSKTTIYLQMNSLKTEDTAVYYCTGLDYWGQGTTVTVSS
VL: DVVMTQSPLSLPVTPGEPASISCRSSRSLLTSKGITSLYWYLQKPGQSPQLLIYRMSNLASGVPDRFSGSGSGTDFTLKISRVEAEDVGVYYCAQFLVYPYTFGQGTKVEIK
notes: also called 3.10C2-H1/3.27H7-L6
Turning to B1, in the test with cynomolgus TREM2-Fc [1], binding was characterised by a dissociation constant (Kd) of 430 pM, the koff amounted to 0.00062 s⁻¹ and the on-rate constant (kon) was determined as 1.4e+06 M⁻¹ s⁻¹. In addition, in the test with human TREM2-Fc [2], the Kd was found to be 390 pM, the koff was determined as 0.00057 s⁻¹ and the on-rate (kon) came out at 1.5e+06 M⁻¹ s⁻¹.

B2: hPara.09.v2 Fab (Fab, V domains shown)
VH: EVQLVESGGGLVQPGGSLKLSCATSGFPFSNVWLHWVRQASGKGPEWVAHIKAKSDNYATYYAESVKGRFTISRDDSKNTVYLQMNSLKTEDTAVYYCTDILEYWGQGTLVTVSS
VL: B1 VL with V63I
notes: also called Para.09-H5/3.27H7-L6
As to B2, in the test with cynomolgus TREM2-Fc [1], binding was characterised by a dissociation constant (Kd) of 22 pM, the off-rate constant (koff) was 6.3e-05 s⁻¹ and the kon was 2.9e+06 M⁻¹ s⁻¹. In the test with human TREM2-Fc [2], this molecule gave a Kd of 21 pM, an off-rate (koff) of 6.1e-05 s⁻¹ and a kon of 3e+06 M⁻¹ s⁻¹.

B3: 3.10C2 IgG (rat variable regions; captured by anti-CH1 or anti-human Fab chips) (antibody, V domains shown)
VH: EVQLVETGGSLVQPGKSLKLTCATSGFPFSNVWMHWVRQSPEKQLEWIAHIKAKSDNYATYYAESVKGRFTISRDDSKTSIYLQMNSLKEDDTAIYYCTGLDYWGQGVMVTVSS
VL: DTVLTQAPLSLSVTPGESASISCRSSKSLLGVRDITSLYWYLQKPGKSPQLLIYRMSNLASGVPDRFSGSGSETDFTLKISEVETEDVGVYYCAQFLRYPYTFGPGTKLELK
notes: also called parental 3.10C2 clone; 3.10C2 control
As for B3, in test [3], the Kd amounted to 120 pM, the koff was found to be 9.6e-05 s⁻¹ and the kon is 780000 M⁻¹ s⁻¹.

B4: Para.09 Fab with the 3.27H7 light chain (Fab, V domains shown)
VH: EVQLVETGGSLVQPGKSLRLTCATSGFPFSNVWLHWVRQSPEKHPEWVAHIKAKSDNYATYYAESVKGRFTISRDDSKSSVFLQMNSLKEEDTAIYYCTDILEYWGQGTLVTVSS
VL: DVVLTQAPLSVSVTPGESASISCRSSRSLLTSKGITSLYWYLQKPGMSPHLLIYRMSNLASGIPDRFSGSGSETDFTLKISEVEPEDVGVYYCAQFLVYPYTFGAGTKLELK
notes: Fab fragment; also called Para.09 (3.27H7); Para.09-L27H7
Turning to B4, the equilibrium dissociation constant (Kd) amounted to 18 pM with cynomolgus TREM2-Fc [1], 15 pM with human TREM2-Fc [2], 2.5 pM in the test with cynomolgus TREM2-Fc [4] and 4.2 pM with human TREM2-Fc [5]. Moreover, the koff in the test with cynomolgus TREM2-Fc [1] came out at 4.1e-05 s⁻¹; in the test with human TREM2-Fc [2], 3.5e-05 s⁻¹; with cynomolgus TREM2-Fc [4], 1.2e-05 s⁻¹; in the test with human TREM2-Fc [5], 2.7e-05 s⁻¹. The kon with cynomolgus TREM2-Fc [1] was determined as 2.3e+06 M⁻¹ s⁻¹; with human TREM2-Fc [2], 2.3e+06 M⁻¹ s⁻¹; with cynomolgus TREM2-Fc [4], 4.8e+06 M⁻¹ s⁻¹; with human TREM2-Fc [5] it was 6.3e+06 M⁻¹ s⁻¹.

B5: Para.09 Fab with the 3.18E5 light chain (Fab, V domains shown)
VH: B4 VH
VL: B3 VL with L11V, S26N, V32I
notes: also called Para.09 (3.18E5)
In the case of B5, in the test with cynomolgus TREM2-Fc [4], the Kd stood at 2.4 pM, the koff was found to be 8.9e-06 s⁻¹ and the kon came to 3.8e+06 M⁻¹ s⁻¹. In the test with human TREM2-Fc [5], the Kd turned out to be 5 pM, the off-rate constant (koff) stood at 2.8e-05 s⁻¹ and the kon turned out to be 5.6e+06 M⁻¹ s⁻¹.

B6: Para.09 Fab with the 3.10C2 light chain (Fab, V domains shown)
VH: B4 VH
VL: B3 VL
notes: also called Para.09 (3.10C2)
In the test with cynomolgus TREM2-Fc [4], B6 came in with a dissociation constant (Kd) of 1.6 pM, a koff of 7.8e-06 s⁻¹ and a kon of 4.8e+06 M⁻¹ s⁻¹. In the test with human TREM2-Fc [5], the affinity, expressed as Kd, was 3.8 pM; the koff was 2.7e-05 s⁻¹; the association rate constant (kon) was 7.1e+06 M⁻¹ s⁻¹.

B7: Para.09 Fab with the 3.50G1 light chain (Fab, V domains shown)
VH: B4 VH
VL: B3 VL with L11V, S26N, V32I, Y41F, K112Q
notes: also called Para.09 (3.50G1)
Consider B7, for which, in the test with cynomolgus TREM2-Fc [4], binding was characterised by a dissociation constant (Kd) of 2 pM, the off-rate (koff) amounted to 7.9e-06 s⁻¹ and the kon was determined as 3.9e+06 M⁻¹ s⁻¹. Further, in the test with human TREM2-Fc [5], the affinity, expressed as Kd, was 1.1 pM; the off-rate constant (koff) is 5.8e-06 s⁻¹; the kon is 5.1e+06 M⁻¹ s⁻¹.

Broadly, the Kd is the constant that tells how readily two partners part at equilibrium. Low values mean tighter binding, high ones weaker binding. For orientation: koff means a measure of how fast the partners let go of each other. What is called kon is a measure of how fast the partners come together.
